Experimental data as given in publication PMC13367182.

Key:
[1] = biological target: mononucleosome with deletion of the histone H3 tail (human) (UniProt P04908); assay: AlphaScreen or HTRF
[2] = biological target: mononucleosome with deletion of the histone H4 tail (human) (UniProt P04908); assay: AlphaScreen or HTRF

HIV-1 intasome assembled in the presence of LEDGF/p75 (from UniProt O75475 1-530) (complex)
decrease in the bridging signal against native nucleosomes [1]: 20% | decrease in the bridging signal against native nucleosomes [2]: 20%
